Measured values published in PMC5703890, “Involvement of cecropin B in the formation of the Aedes aegypti mosquito cuticle”.

Legend:
[1] = system: T1, Aacec B (cecropin B) peptide (Aedes aegypti); experiment: pull-down
T1 sequence: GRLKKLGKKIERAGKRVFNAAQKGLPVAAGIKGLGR

[2] = biological target: T2, Aacec B (cecropin B) peptide (Aedes aegypti); experiment: EMSA; 1 ng peptide; EMSA: 6% native polyacrylamide gel, LightShift chemiluminescent kit; buffer, salt, pH and temperature not given in the material (cited to earlier work); settings: tags: none stated for EMSA; conjugated to beads for pull-down; label: biotin end label; blunt
T2 chain: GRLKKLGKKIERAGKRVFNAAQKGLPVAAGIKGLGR

[3] = biological target: T2, Aacec B (cecropin B) peptide; experiment: EMSA; EMSA: 6% native polyacrylamide gel, LightShift chemiluminescent kit; buffer, salt, pH and temperature not given in the material (cited to earlier work); settings: tags: none stated for EMSA; conjugated to beads for pull-down; label: biotin; blunt

ATAACGAGAAATGATTTGGCTGTGCATATAGTAGAAAAGTTCACCACGGCGATCTTTCTTAGCAATTTCCGGTGGCGCCCCAGCAGGATACACTAAATGCCAGTGCCAATGGTGCATGTTGACTCCGATGTCCTCACGGAAGTATGCCAT (double strand) [Cu A fragment]
binding [1]: binds

GTTAGCTGGCGATTTGCAGAGCAGGTTCACGAGTGGCGCGGAGGTCGAAATTCCGGTTCGAAATGTTGGAATCCCGGATCTTGCCTTTGCGGAG (double strand) [5' end-1-2 fragment]
binding [1]: binds

TGACGTGACAACGGCAATGCGTGATCCTGTGTTCTATCGTTGGCACGGAATGATCGATGGCTTGT (double strand) [Cu B3 fragment]
binding [1]: binds

AACAAGCCATCGATCATTCCGTGCCAACGATAGAACACAGGATCACGCATTGCCGTTGTCACGTCACCCATTACTCCAAAATCTTCCAAGTACCGATACTCAGGATCGTGAATGTAGGCCAAAAAATCATGTCCAAAGTTATGCAAACTCCCATACAACCTCCTGTTGACGGAAAGCGTGGAAGCTTCAACCAAGTCACCTAAAAT (double strand) [Cu B fragment]
binding [1]: binds

ATGGCATACTTCCGTGAGGACATCGGAGTCAACATGCACCATTGGCACTGGCATTTAGT (double strand) [Cu A1 fragment]
binding [1]: binds

GCCTACATTCACGATCCTGAGTATCGGTACTTGGAAGATTTTGGAGTAATGGG (double strand) [Cu B2 fragment]
binding [1]: binds

CTCCGCAAAGGCAAGATCCGGGATTCCAACATTTCGAACCGGAATTTCGACCTCCGCGCCACTCGTGAACCTGCTCTGCAAATCGCCAGCTAACGGACGATAACGATCACTCAAATACTCGTCCGGAATTATGAGCGATGTTTTACCATCGTCCTTTGGCATAAACGATGGCTCCAGAGGGCGTTGCAGAAGCGCTTGGAAAGATTTACTCTCAGCCATCTTTTAACAACAAAACAATGCGTTTCCGTACGATAGCTATCGATTGGAGATTGG (double strand) [5' end-1 fragment]
binding [1]: binds

B1: AaPPO 3-Cu A1 oligo (TTGGCA) (dsDNA)
DNA 1: CATGCACCATTGGCACTGGCATTTA
DNA 2: TAAATGCCAGTGCCAATGGTGCATG
binding result [2]: binds

B2: AaPPO 3-5' end-1-2 oligo (TTGGAA) (dsDNA)
DNA 1: GTTCGAAATGTTGGAATCCCGGATC
DNA 2: GATCCGGGATTCCAACATTTCGAAC
binding result [2]: binds

B3: nucleotide replacement 2 (GG to TA) (dsDNA)
DNA 1: TCGAAATGTTTAAATCCCGG
DNA 2: CCGGGATTTAAACATTTCGA
binding result [3]: no binding

B4: nucleotide replacement 4 ((A/C)A to CG) (dsDNA)
DNA 1: TCGAAATGTTGGCGTCCCGG
DNA 2: CCGGGACGCCAACATTTCGA
binding result [3]: no binding

B5: nucleotide replacement 1 (TT to CC) (dsDNA)
DNA 1: TCGAAATGCCGGAATCCCGG
DNA 2: CCGGGATTCCGGCATTTCGA
binding result [3]: no binding

B6: AaPPO 3-Cu B2 oligo (TTGGAA) (dsDNA)
DNA 1: GAGTATCGGTACTTGGAAGATTTTG
DNA 2: CAAAATCTTCCAAGTACCGATACTC
binding result [2]: binds

B7: nucleotide replacement 3 ((A/C)A to TA) (dsDNA)
DNA 1: TCGAAATGTTGGTATCCCGG
DNA 2: CCGGGATACCAACATTTCGA
binding result [3]: no binding

B8: AaPPO 3-Cu B3 oligo (TTGGCA) (dsDNA)
DNA 1: GTTCTATCGTTGGCACGGAATGATC
DNA 2: GATCATTCCGTGCCAACGATAGAAC
binding result [2]: binds
